PMC6379675, “Structural insights into chromosome attachment to the nuclear envelope by an inner nuclear membrane protein Bqt4 in fission yeast” (Nucleic Acids Research, 2018)
Changes are numbered by the printed parent chain. Numbers in names are those of the source. Like-named read-outs stand apart in the source and are kept apart here. Ends that are not written are not given here.

T1: Bqt4_(2–140), N-terminal domain of Bqt4 (S. pombe, UniProt O60158 2-140)
T1 chain: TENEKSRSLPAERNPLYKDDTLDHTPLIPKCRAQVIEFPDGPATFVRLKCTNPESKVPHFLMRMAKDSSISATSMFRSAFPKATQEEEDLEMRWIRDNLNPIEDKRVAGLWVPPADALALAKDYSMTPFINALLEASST

T2: Bqt4_(2–140), N-terminal domain of Bqt4 (S. pombe, UniProt O60158 2-140)
T2 construct: Bqt4, S. pombe inner nuclear membrane protein, residues 2-140; also called Bqt4NTD; Bqt4NTD^WT; source: E. coli BL21(DE3), purified (Ni-NTA, on-beads Ulp1 digestion, Superdex200); not shown: His6, N-terminal, cleaved; SUMO, N-terminal, cleaved
T2 sequence (looked up): T1 chain

T3: Bqt4_(2–180) (S. pombe, UniProt O60158 2-180)
T3 chain: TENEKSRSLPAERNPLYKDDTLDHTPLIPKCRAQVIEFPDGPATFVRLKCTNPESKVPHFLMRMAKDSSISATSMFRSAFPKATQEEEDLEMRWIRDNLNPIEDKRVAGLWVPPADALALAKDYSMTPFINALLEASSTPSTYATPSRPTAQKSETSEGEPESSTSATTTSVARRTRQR

T4: Bqt4NTD^R48E (S. pombe, UniProt O60158 2-140, R48E)
T4 sequence: T1 chain with R47E

T5: Bqt4_(2–180) (S. pombe, UniProt O60158 2-180)
T5 construct: Bqt4, S. pombe, residues 2-180; also called N-terminal region of Bqt4; source: E. coli BL21(DE3), purified (Ni-NTA, on-beads Ulp1 digestion, Superdex200); not shown: His6, N-terminal, cleaved; SUMO, N-terminal, cleaved
T5 sequence (looked up): T3 chain

T6: Bqt4NTD D90R (S. pombe, UniProt O60158 2-140, D90 into arginine)
T6 sequence: T1 chain with D89R

T7: Bqt4NTD R33A (S. pombe, UniProt O60158 2-140, R33A)
T7 sequence: T1 chain with R32A

T8: Bqt4NTD^F61A (S. pombe, UniProt O60158 2-140, F61A)
T8 sequence: T1 chain with F60A

B1: FITC-labeled Lem2BBM (peptide, UniProt Q10109 261-279, looked up)
chain: SAEEDDELFQNYVLQQTRK
modifications: also: FITC label, position not given here
notes: also called fluorescent FITC-labeled Lem2BBM; source: E. coli BL21(DE3), purified; labeled with EZLabel Protein FITC Labeling Kit; not shown: GST, N-terminal, cleaved
B2: Rap1_(403-541) (protein)
chain: DSMYRSISNPLHLVDSQHLSPLNRKTHFNNPIGQPQFTCLDDHEKTLRETSFRSLDDMSLRKSNSDNIFVKPGEDLEIPLLSDYSDSENISEKSSDDEEAFEKQVTSSYSSPIKVKSQGKSSKGSSGLDVREHEGSDDD
B3: Rap1_(468-527) (protein)
chain: DNIFVKPGEDLEIPLLSDYSDSENISEKSSDDEEAFEKQVTSSYSSPIKVKSQGKSSKGS
B4: Sad1 (residues 88–101) (peptide, UniProt Q09825 88-101, looked up)
chain: SDNEEFENVVKNGH
notes: Sad1, S. pombe spindle pole body-associated protein, residues 88-101 (14 residues); 3C cleavage leaves extra N-terminal residues; also called Sad1BBM; Sad1_(88–101); source: E. coli BL21(DE3), purified (glutathione-Sepharose 4B, on-beads 3C digestion, Superdex75); not shown: GST, N-terminal, cleaved
B5: Rap1_(490–513), Bqt4-binding motif of Rap1 (peptide, UniProt Q96TL7 490-513, looked up)
chain: ENISEKSSDDEEAFEKQVTSSYSS
notes: 3C cleavage leaves extra N-terminal residues; also called Rap1BBM; source: E. coli BL21(DE3), purified (glutathione-Sepharose 4B, on-beads 3C digestion, Superdex75); not shown: GST, N-terminal, cleaved
B6: Rap1_(220-606) (protein)
chain: SVSKSENKALVNNKRYSDSYFYFSKMRRISIDVDYVDEDLNLINAYLSQFGKKRSLNELCALLSRRFSNRHTFSEWRALFMHFFPFINSEGVDPAILSDRETSAMLDETSDNEVADIDDQMIERKYLFSASEPNTVKSTNRLIFSERKAYAADDSIDNTPSKVPIVNSLSDPRTNRPFFYSNPDSMYRSISNPLHLVDSQHLSPLNRKTHFNNPIGQPQFTCLDDHEKTLRETSFRSLDDMSLRKSNSDNIFVKPGEDLEIPLLSDYSDSENISEKSSDDEEAFEKQVTSSYSSPIKVKSQGKSSKGSSGLDVREHEGSDDDAEVFVDRSPESFGATKVAHTSLEGNAASHKKVEENMQQPVTKKQKKYRMVNEEAHTGPTIIIPSD
B7: Rap1_(479–527) (domain or fragment, S. pombe, UniProt Q96TL7 479-527, looked up)
chain: EIPLLSDYSDSENISEKSSDDEEAFEKQVTSSYSSPIKVKSQGKSSKGS
notes: also called Rap1^WT; wild-type Rap1; source: E. coli BL21(DE3), purified (glutathione-Sepharose 4B, on-beads 3C digestion, Superdex75); not shown: GST, N-terminal, cleaved
B8: Rap1_(479–527) S496E (domain or fragment, S. pombe, UniProt Q96TL7 479-527, looked up)
chain: B7 chain with S18E
notes: phosphomimetic; also called Rap1^S496E; source: E. coli BL21(DE3), purified (glutathione-Sepharose 4B, on-beads 3C digestion, Superdex75); not shown: GST, N-terminal, cleaved
B9: Rap1_(479–527) (S496E/S497E) (domain or fragment, S. pombe, UniProt Q96TL7 479-527, looked up)
chain: B7 chain with S18E, S19E
notes: phosphomimetic; also called Rap1^S496E/S497E; source: E. coli BL21(DE3), purified (glutathione-Sepharose 4B, on-beads 3C digestion, Superdex75); not shown: GST, N-terminal, cleaved
B10: Rap1_(479–527) S512E/S513E (domain or fragment, S. pombe, UniProt Q96TL7 479-527, looked up)
chain: B7 chain with S34E, S35E
notes: phosphomimetic; also called Rap1^S512E/S513E; source: E. coli BL21(DE3), purified (glutathione-Sepharose 4B, on-beads 3C digestion, Superdex75); not shown: GST, N-terminal, cleaved
B11: Rap1_(468-541) (protein)
chain: DNIFVKPGEDLEIPLLSDYSDSENISEKSSDDEEAFEKQVTSSYSSPIKVKSQGKSSKGSSGLDVREHEGSDDD
B12: Lem2_(261–279) (peptide, UniProt Q10109 261-279, looked up)
chain: SAEEDDELFQNYVLQQTRK
notes: 3C cleavage leaves extra N-terminal residues; also called Lem2BBM; source: E. coli BL21(DE3), purified (glutathione-Sepharose 4B, on-beads 3C digestion, Superdex75); not shown: GST, N-terminal, cleaved
B13: Rap1_(490-541) (protein)
chain: ENISEKSSDDEEAFEKQVTSSYSSPIKVKSQGKSSKGSSGLDVREHEGSDDD
B14: Rap1_(468-519) (protein)
chain: DNIFVKPGEDLEIPLLSDYSDSENISEKSSDDEEAFEKQVTSSYSSPIKVKS

Tests used:
[1] = target: T1, Bqt4_(2–140), N-terminal domain of Bqt4; test: ITC
[2] = target: T2, Bqt4_(2–140), N-terminal domain of Bqt4; test: fluorescence polarisation; 100 nM FITC-labeled Lem2BBM with Bqt4NTD from 20 nM to 50 μM; 25 mM Tris–HCl pH 8.0, 150 mM NaCl, 10% glycerol; 25°C; details: both partners purified
Bqt4_(2–180) [3] = target: T3, Bqt4_(2–180); test: ITC
[4] = target: T1, Bqt4_(2–140), N-terminal domain of Bqt4; test: ITC
Bqt4NTD^R48E = target: T4, Bqt4NTD^R48E; test: ITC
[5] = target: T2, Bqt4_(2–140), N-terminal domain of Bqt4; test: ITC; ITC200; peptide (Rap1 479-527 at 1000–1500 μM) titrated into Bqt4 2-140 (100–150 μM), 20°C, 20 mM Tris–HCl pH 8.0, 150 mM NaCl; one binding site model; two independent experiments; details: both partners purified
Bqt4_(2–180) [6] = target: T5, Bqt4_(2–180); test: as above; details: both partners purified
Bqt4NTD D90R = target: T6, Bqt4NTD D90R; test: ITC
Bqt4NTD R33A = target: T7, Bqt4NTD R33A; test: ITC
Bqt4NTD^F61A [7] = target: T8, Bqt4NTD^F61A; test: ITC
[8] = target: T1, Bqt4_(2–140), N-terminal domain of Bqt4; test: ITC
[9] = target: T2, Bqt4_(2–140), N-terminal domain of Bqt4; test: fluorescence polarisation; competition: FITC-labeled Lem2BBM pre-mixed with Bqt4NTD (4°C, 1 h), unlabeled peptides from 10 nM to 200 μM added; 25 mM Tris–HCl pH 8.0, 150 mM NaCl, 10% glycerol; 25°C; details: both partners purified
[10] = target: T1, Bqt4_(2–140), N-terminal domain of Bqt4; test: ITC
[11] = target: T1, Bqt4_(2–140), N-terminal domain of Bqt4; test: FP; competition with FITC-Lem2BBM
Bqt4NTD^F61A [12] = target: T8, Bqt4NTD^F61A; test: ITC; remark: listed apart in the source

| Binder | Kd (Bqt4_(2–180) [3]) [µM] | Kd [4] [µM] | Kd [10] [µM] | further results |
| --- | --- | --- | --- | --- |
| SESSSPYSEVDSAEEDDELFQNYVLQQTRK [Lem2_(250-279)] |  |  |  | Kd [1]: 0.34 µM |
| B1 |  |  |  | Kd [2]: 0.61 µM |
| B2 | 5.4 | 4.8 |  |  |
| B3 | 8.7 | 5.8 |  |  |
| B4 |  |  |  | Kd (Bqt4NTD^R48E): 262 µM; Kd [5]: 3.7 µM |
| B5 | 11 | 11.4 |  | binding result [5]: binds; binding result (Bqt4_(2–180) [6]): binds |
| KSSDDEEAFEKQVTSSYSSPIKVKSQGKSSKGS [Rap1_(495-527)] | 15.3 | 14.7 |  |  |
| B6 | 12.9 | 13.7 |  |  |
| B7 |  |  |  | Kd (Bqt4NTD D90R): 14.4 µM; Kd (Bqt4NTD R33A): 12.3 µM; Kd (Bqt4NTD^F61A [7]): 909 µM; Kd [8]: 11.4 µM; fold by which the Bqt4-Lem2 interaction is stronger than this pair [5]: 20 fold; IC50 [9]: 50.9 µM |
| EIPLLSDYSDSENISEKSSDDEEAFEKQVTSSYASPIKVKSQGKSSKGS [Rap1_(479-527) S512A] |  |  | 7.1 |  |
| EIPLLSDYSDSENISEKAADDEEAFEKQVTSSYSSPIKVKSQGKSSKGS [Rap1_(479-527) S496A/S497A] |  |  | 8 |  |
| EIPLLSDYSDSENISEKSSDDEEAFEKQATSSYSSPIKVKSQGKSSKGS (domain or fragment) [Rap1_(479–527) V507A] |  |  |  | Kd [8]: 138 µM |
| EIPLLSDYSDSENISEKSSDDEEAFEKQVTSSYESPIKVKSQGKSSKGS (domain or fragment) [Rap1_(479–527) S512E] |  |  | 27.2 |  |
| EIPLLSDYSDSENISEKSSDDEEAFEKQVTSSYAAPIKVKSQGKSSKGS [Rap1_(479-527) S512A/S513A] |  |  | 7.3 |  |
| EIPLLSDYSDSENISEKSSDAAEAFEKQVTSSYSSPIKVKSQGKSSKGS (domain or fragment) [Rap1_(479–527) D499A/E500A] |  |  |  | Kd [8]: 862 µM |
| EIPLLSDYSDSENISEKSADDEEAFEKQVTSSYSSPIKVKSQGKSSKGS [Rap1_(479-527) S497A] |  |  | 9.5 |  |
| EIPLLSDYSDSENISEKSSDDEEAAEKQVTSSYSSPIKVKSQGKSSKGS (domain or fragment) [Rap1_(479–527) F503A] |  |  |  | Kd [8]: 106 µM |
| EIPLLSDYSDSENISEKASDDEEAFEKQVTSSYSSPIKVKSQGKSSKGS [Rap1_(479-527) S496A] |  |  | 10.6 |  |
| EIPLLSDYSDSENISEKSSDDEEAFEKQVTSSYSAPIKVKSQGKSSKGS [Rap1_(479-527) S513A] |  |  | 7.9 |  |
| B8 |  |  | 2.4 | binding result [5]: binds |
| B9 |  |  | 0.9 | IC50 [11]: 6.8 µM; fold increase in binding affinity against wild-type Rap1 [5]: 10 fold |
| B10 |  |  | 115 | IC50 [11]: > 200 µM; fold decrease in binding affinity against wild-type Rap1 [5]: 10 fold |
| B11 | 7.9 | 5.7 |  |  |
| B12 |  |  |  | Kd (Bqt4NTD^F61A [12]): 46 µM; Kd (Bqt4NTD^R48E): 3.2 µM; Kd [5]: ~0.53 µM; IC50 [9]: 1.2 µM |
| B13 | 9.7 | 8.3 |  |  |
| B14 | 10.8 | 6.6 |  |  |
